B1: DFD23 (Fc fusion)
chain: HGEGTFTSDVSSYLEGQAAKEFIAWLVKGRGEKEKEEQEERETKTPECPSHTQPLGVFLFPPKPKDTLMISRTPEVTCVVVDVSQEDPEVQFNWYVDGVEVHNAKTKPREEQFNSTYRVVSVLTVLHQDWLNGKEYKCKVSNKGLPSSIEKTISKAKGQPREPQVYTLPPSQEEMTKNQVSLTCLVKGFYPSDIAVEWESNGQPENNYKTTPPVLDSDGSFFLYSRLTVDKSRWQEGNVFSCSVMHEALHNHYTQKSLSLSLGKGGGGSGGGGSGGGGSHPIPDSSPLLQFGGQVRQRYLYTDDAQQTEAHLEIREDGTVGGAADQSPESLLQLKALKPGVIQILGVKTSRFLCQRPDGALYGSLHFDPEACSFREEIRPDGYNVYQSEAHGLPLHLPGNKSPHRDPAPRGPARFLPLPGLPPALPEPPGILAPQPPDVGSSDPLSMVTGLEAVRSPSYAS
B2: DFD59: GLP1(GEG)-HyFc40 (Fc fusion)
chain: HGEGTFTSDVSSYLEEQAAKEFIAWLVKGGGEKEKEEQEERETKTPECPSHTQPLGVFLFPPKPKDTLMISRTPEVTCVVVDVSQEDPEVQFNWYVDGVEVHNAKTKPREEQFNSTYRVVSVLTVLHQDWLNGKEYKCKVSNKGLPSSIEKTISKAKGQPREPQVYTLPPSQEEMTKNQVSLTCLVKGFYPSDIAVEWESNGQPENNYKTTPPVLDSDGSFFLYSRLTVDKSRWQEGNVFSCSVMHEALHNHYTQKSLSLSLGK

Target: human GLP-1 receptor (human, UniProt P43220 24-463)
Assay: cell-based or functional assay

Row | in vitro GLP-1 activity (intracellular cAMP, EC50 compared) | Binder
1 | 2 to 3 times lower activity than the dual function proteins with other GLP-1 mutant sequences | B1
2 | ~2 times higher activity than the dual function proteins DFD69, DFD112 and DFD114 | B2
